Tested on: metastatic (Stage IV) squamous or non-squamous NSCLC
Assay: Randomized first-line trial: zimberelimab vs domvanalimab + zimberelimab vs etrumadenant + domvanalimab + zimberelimab; cORR and PFS in ITT and biomarker selected subsets
Type: in vivo, human
Details: for Events: PFS events; for HR vs. Low: PFS; for PFS: median
Experimental: The potential treatment benefit of zimberelimab monotherapy vs. domvanalimab plus zimberelimab combination therapy vs. etrumadenant plus domvanalimab plus zimberelimab combination therapy was evaluated in 150 people as a first-line treatment for metastatic (Stage IV) squamous or non-squamous NSCLC. Participants were randomized 1:1:1 across the three study arms and treated until disease progression or loss of clinical benefit. Arm 1 received zimberelimab 360 mg IV Q3W (Arm 1=Z). Arm 2 received domvanalimab 15 mg/kg IV Q3W and zimberelimab 360 mg IV Q3W (Arm 2=DZ). Arm 3 received domvanalimab 15 mg/kg IV Q3W, zimberelimab 360 mg IV Q3W, and etrumadenant 150 mg PO QD (Arm 3=EDZ). Participants in the zimberelimab monotherapy arm (Arm 1) with confirmed progression had the option to cross over to the triplet arm (Arm 3).
EGFR and ALK mutational testing was not required for participants with squamous histology.
The co-primary endpoints for this study were objective response rate (ORR) and progression free survival (PFS). ORR was defined as the percentage of participants with a best overall response (BOR) of either compete response (CR) or partial response (PR). Participants with measurable disease at baseline who discontinued prior to their first scheduled scan were considered non-responders. PFS was defined from the time of randomization until first documentation of disease progression, or death from any cause, whichever occurred first. In addition to the co-primary endpoints, disease control rate (DCR, defined as the percentage of participants with a BOR of CR, PR, or stable disease (SD) for >6 months), duration of response (DoR, defined as the time from first documentation of disease response (CR or PR) until first documentation of confirmed progressive disease) and overall survival (OS, defined as the time from randomization until death due to any cause) were also evaluated as exploratory endpoints. Efficacy analyses were based on the intent-to-treat (ITT) population, which comprises all randomized participants.
As part of an exploratory analysis, clinical outcomes in biomarker selected subsets were investigated retrospectively. Central submission of adequate tumor tissue and central confirmation of PD-L1 status was not required for study enrollment. Thus, the number of biomarker evaluable patients (BEP) varied by biomarker and was less than the ITT population. Expression levels of CD155, CD226, and CD73 were measured in baseline tumor biopsy samples (e.g., formalin-fixed, paraffin-embedded tissue or freshly cut, serial unstained sections), along with baseline expression level of PD-L1. The baseline samples were archival tumor samples obtained ≤24 months prior to screening or fresh biopsy samples obtained prior to the first dose of treatment. PD-L1 expression level in the BEP subset was measured at a central lab using the Ventana SP263 IHC assay, while enrollment in the trial was based on PD-L1 expression ([…] TC or TPS) locally assessed by Ventana SP263 assay or PharmDx 22C3 assay. CD155, CD226 and CD73 expression levels were measured at a central lab as described in Example L. PD-L1, CD155, CD226, and CD73 expression at baseline are summarized in Table 3. The best predictive biomarker of activity in Arm 1 was CD155 (e.g., CD155 low). At least three biomarkers (e.g., PD-L1 high, CD155 high, and CD73 low) enrich for clinical activity of domvanalimab and there was an even greater enhancement in patients that fulfill two of the biomarkers (analyses not shown).
Without rescoring CD155 intensity (i.e., using the original values scored by the pathologist), expression was characterized by two different scoring algorithms—namely, % TC and % TC 2-3+. The coefficient of determination (R^2 value) was used to look at the variance between each approach and CD155 expression characterization by H-scores. While % TC 2-3+ and H-score are highly concordant (R^2 value of 0.94), less concordance was observed between % TC and H-score (R^2 value of 0.71). […]

[1] = CD155 High (2+ or 3+ % TC ≥ 40%)
[2] = CD155 Low (2+ or 3+ % TC < 40%)

B1: zimberelimab (antibody, chains of the INN, looked up, V domains shown)
VH: QLQLQESGPGLVKPSETLTLTCTVSADSISSTTYYWVWIRQPPGKGLEWIGSISYSGSTYYNPSLKSRVTVSVDTSKNQFSLKLNSVAATDTALYYCARHLGYNGRYLPFDYWGQGTLVTVSS
VL: QSALTQPASVSGSPGQSITISCTGTSSDVGFYNYVSWYQQHPGKAPELMIYDVSNRPSGVSDRFSGSKSGNTASLTISGLQAEDEADYYCSSYTSISTWVFGGGTKLTVL
notes: zimberelimab monotherapy 360 mg IV Q3W; anti-PD-1 antibody
For B1, the “Event Rate” value (BEP for CD155, unselected) was 65%, the cORR (BEP for CD155, unselected) was 32% and the cORR (CD73 High: ≥61% TC, BEP) was 42%. For the same molecule, the cORR (CD73 Low: <61% TC, BEP) was 12%, the “Event Rate” value [1] was 82% and the cORR [1] was 18%. For the same molecule, the cORR (CD155 High: H-score ≥ 135, BEP) was 24%, the “Event Rate” value [2] was 47% and the cORR [2] was 47%. The cORR (CD155 Low: H-score < 135, BEP) was 41%, the cORR (CD226 High: ≥4% IC, BEP) was 39% and the cORR (CD226 Low: <4% IC, BEP) was 27%. For the same molecule, the “PFS Events (%)” value (ITT population) was “(64%)”, the “PFS Median” value (ITT population) was 5.4 mos and the “PFS Events” value (ITT population, number of events, n = 50 per arm) was 32. The cORR (ITT population, planned interim analysis) was 30%, the cORR (PD-L1 High: ≥50% TC, BEP) was 33% and the cORR (PD-L1 Low: <50% TC, BEP) was 27%. The Events (CD73 High: ≥61% TC, BEP) was 68%, the Events (CD73 Low: <61% TC, BEP) was 65% and the Events (CD155 High: H-score ≥ 135, BEP) was 82%. It also gave an Events (CD155 Low: H-score < 135, BEP) of 47%, an Events (CD226 High: ≥4% IC, BEP) of 69% and an Events (CD226 Low: <4% IC, BEP) of 73%. For the same molecule, the Events (PD-L1 High: ≥50% TC, BEP) was 67%, the Events (PD-L1 Low: <50% TC, BEP) was 60% and the “HR vs. Low” value (CD73 High (≥61% TC) vs. Low within the arm) was 0.63. The “HR vs. Low” value (CD155 High (H-score ≥ 135) vs. Low within the arm) was 0.38, the “HR vs. Low” value (CD226 High (≥4% IC) vs. Low within the arm) was 0.473 and the “HR vs. Low” value (PD-L1 High (≥50% TC) vs. Low within the arm) was 1.04. It also gave a PFS (BEP for CD155, unselected) of 5.4 mo, a PFS (CD73 High: ≥61% TC, BEP) of 9.6 mo and a PFS (CD73 Low: <61% TC, BEP) of 3.5 mo. For the same molecule, the PFS [1] was 3.5 mo, the PFS (CD155 High: H-score ≥ 135, BEP) was 3.5 mo and the PFS [2] was 9.7 mo. The PFS (CD155 Low: H-score < 135, BEP) was 9.7 mo, the PFS (CD226 High: ≥4% IC, BEP) was 5.4 mo and the PFS (CD226 Low: <4% IC, BEP) was 2.7 mo. The PFS (PD-L1 High: ≥50% TC, BEP) was 5.7 mo and the PFS (PD-L1 Low: <50% TC, BEP) was 5.4 mo.
